Test results from paper PMC3097154 (2011).

Target: the molecule itself
Test: ITC

B1: HIV-1 capsid CTD CTD (protein)
chain: not shown
Kd: ~15 µM
